Results from patent US10919943B2, “Mutant proteins enabling agrochemical control of plant gene expression” (The Regents of the University of California, priority 2016, dated 2021).

tested on: HAB1; test: Yeast two hybrid of pBD-PYR1 site saturation mutants with pACT-HAB1 on 10 μM ABA, β-galactosidase staining; assay type: cell-based, Arabidopsis; parameters: key: x: Mutations in PYR1 that disrupt ABA-induced binding to PYR1 to HAB1; details: S. cerevisiae Y190, 10 μM ABA; dead = lack of visible staining in comparison to wild type control
In short: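 S. cerevisiae Y190 co-expressing GAL4-DNA-binding-domain–PYR1 mutants and GAL4-activation-domain–HAB1 were spotted on SD (-Leu, -Trp) agar with 10 μM (+)-ABA for 2 days at 30° C. Colonies were chloroform-lysed and stained for β-galactosidase. Mutants lacking visible staining relative to wild type were scored as non-binding.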

Row | Mutations in PYR1 that disrupt ABA-induced binding to PYR1 to HAB1 | Molecule
1 | x | P148S: PYR1 mutant (protein, UniProt O49686 1-191, looked up, variant P148S) Abscisic acid receptor PYR1: MPSELTPEERSELKNSIAEFHTYQLDPGSCSSLHAQRIHAPPELVWSIVRRFDKPQTYKHFIKSCSVEQNFEMRVGCTRDVIVISGLPANTSTERLDILDDERRVTGFSIIGGEHRLTNYKSVTTVHRFEKENRIWTVVLESYVVDMSEGNSEDDTRMFADTVVKLNLQKLATVAEAMARNSGDGSGSQVT
2 | x | P148D: PYR1 mutant (protein, UniProt O49686 1-191, looked up, variant P148D) Abscisic acid receptor PYR1: MPSELTPEERSELKNSIAEFHTYQLDPGSCSSLHAQRIHAPPELVWSIVRRFDKPQTYKHFIKSCSVEQNFEMRVGCTRDVIVISGLPANTSTERLDILDDERRVTGFSIIGGEHRLTNYKSVTTVHRFEKENRIWTVVLESYVVDMDEGNSEDDTRMFADTVVKLNLQKLATVAEAMARNSGDGSGSQVT
3 | x | G150I: PYR1 mutant (protein, UniProt O49686 1-191, looked up, variant G150I) Abscisic acid receptor PYR1: MPSELTPEERSELKNSIAEFHTYQLDPGSCSSLHAQRIHAPPELVWSIVRRFDKPQTYKHFIKSCSVEQNFEMRVGCTRDVIVISGLPANTSTERLDILDDERRVTGFSIIGGEHRLTNYKSVTTVHRFEKENRIWTVVLESYVVDMPEINSEDDTRMFADTVVKLNLQKLATVAEAMARNSGDGSGSQVT
4 | x | P148H: PYR1 mutant (protein, UniProt O49686 1-191, looked up, variant P148H) Abscisic acid receptor PYR1: MPSELTPEERSELKNSIAEFHTYQLDPGSCSSLHAQRIHAPPELVWSIVRRFDKPQTYKHFIKSCSVEQNFEMRVGCTRDVIVISGLPANTSTERLDILDDERRVTGFSIIGGEHRLTNYKSVTTVHRFEKENRIWTVVLESYVVDMHEGNSEDDTRMFADTVVKLNLQKLATVAEAMARNSGDGSGSQVT
5 | x | G150W: PYR1 mutant (protein, UniProt O49686 1-191, looked up, variant G150W) Abscisic acid receptor PYR1: MPSELTPEERSELKNSIAEFHTYQLDPGSCSSLHAQRIHAPPELVWSIVRRFDKPQTYKHFIKSCSVEQNFEMRVGCTRDVIVISGLPANTSTERLDILDDERRVTGFSIIGGEHRLTNYKSVTTVHRFEKENRIWTVVLESYVVDMPEWNSEDDTRMFADTVVKLNLQKLATVAEAMARNSGDGSGSQVT
6 | x | P148K: PYR1 mutant (protein, UniProt O49686 1-191, looked up, variant P148K) Abscisic acid receptor PYR1: MPSELTPEERSELKNSIAEFHTYQLDPGSCSSLHAQRIHAPPELVWSIVRRFDKPQTYKHFIKSCSVEQNFEMRVGCTRDVIVISGLPANTSTERLDILDDERRVTGFSIIGGEHRLTNYKSVTTVHRFEKENRIWTVVLESYVVDMKEGNSEDDTRMFADTVVKLNLQKLATVAEAMARNSGDGSGSQVT
7 | x | P148I: PYR1 mutant (protein, UniProt O49686 1-191, looked up, variant P148I) Abscisic acid receptor PYR1: MPSELTPEERSELKNSIAEFHTYQLDPGSCSSLHAQRIHAPPELVWSIVRRFDKPQTYKHFIKSCSVEQNFEMRVGCTRDVIVISGLPANTSTERLDILDDERRVTGFSIIGGEHRLTNYKSVTTVHRFEKENRIWTVVLESYVVDMIEGNSEDDTRMFADTVVKLNLQKLATVAEAMARNSGDGSGSQVT
8 | x | N151Q: PYR1 mutant (protein, UniProt O49686 1-191, looked up, variant N151Q) Abscisic acid receptor PYR1: MPSELTPEERSELKNSIAEFHTYQLDPGSCSSLHAQRIHAPPELVWSIVRRFDKPQTYKHFIKSCSVEQNFEMRVGCTRDVIVISGLPANTSTERLDILDDERRVTGFSIIGGEHRLTNYKSVTTVHRFEKENRIWTVVLESYVVDMPEGQSEDDTRMFADTVVKLNLQKLATVAEAMARNSGDGSGSQVT
9 | x | P148Y: PYR1 mutant (protein, UniProt O49686 1-191, looked up, variant P148Y) Abscisic acid receptor PYR1: MPSELTPEERSELKNSIAEFHTYQLDPGSCSSLHAQRIHAPPELVWSIVRRFDKPQTYKHFIKSCSVEQNFEMRVGCTRDVIVISGLPANTSTERLDILDDERRVTGFSIIGGEHRLTNYKSVTTVHRFEKENRIWTVVLESYVVDMYEGNSEDDTRMFADTVVKLNLQKLATVAEAMARNSGDGSGSQVT
10 | x | P148V: PYR1 mutant (protein, UniProt O49686 1-191, looked up, variant P148V) Abscisic acid receptor PYR1: MPSELTPEERSELKNSIAEFHTYQLDPGSCSSLHAQRIHAPPELVWSIVRRFDKPQTYKHFIKSCSVEQNFEMRVGCTRDVIVISGLPANTSTERLDILDDERRVTGFSIIGGEHRLTNYKSVTTVHRFEKENRIWTVVLESYVVDMVEGNSEDDTRMFADTVVKLNLQKLATVAEAMARNSGDGSGSQVT
11 | x | P148C: PYR1 mutant (protein, UniProt O49686 1-191, looked up, variant P148C) Abscisic acid receptor PYR1: MPSELTPEERSELKNSIAEFHTYQLDPGSCSSLHAQRIHAPPELVWSIVRRFDKPQTYKHFIKSCSVEQNFEMRVGCTRDVIVISGLPANTSTERLDILDDERRVTGFSIIGGEHRLTNYKSVTTVHRFEKENRIWTVVLESYVVDMCEGNSEDDTRMFADTVVKLNLQKLATVAEAMARNSGDGSGSQVT
12 | x | N151P: PYR1 mutant (protein, UniProt O49686 1-191, looked up, variant N151P) Abscisic acid receptor PYR1: MPSELTPEERSELKNSIAEFHTYQLDPGSCSSLHAQRIHAPPELVWSIVRRFDKPQTYKHFIKSCSVEQNFEMRVGCTRDVIVISGLPANTSTERLDILDDERRVTGFSIIGGEHRLTNYKSVTTVHRFEKENRIWTVVLESYVVDMPEGPSEDDTRMFADTVVKLNLQKLATVAEAMARNSGDGSGSQVT
13 | x | P148W: PYR1 mutant (protein, UniProt O49686 1-191, looked up, variant P148W) Abscisic acid receptor PYR1: MPSELTPEERSELKNSIAEFHTYQLDPGSCSSLHAQRIHAPPELVWSIVRRFDKPQTYKHFIKSCSVEQNFEMRVGCTRDVIVISGLPANTSTERLDILDDERRVTGFSIIGGEHRLTNYKSVTTVHRFEKENRIWTVVLESYVVDMWEGNSEDDTRMFADTVVKLNLQKLATVAEAMARNSGDGSGSQVT
14 | x | G150V: PYR1 mutant (protein, UniProt O49686 1-191, looked up, variant G150V) Abscisic acid receptor PYR1: MPSELTPEERSELKNSIAEFHTYQLDPGSCSSLHAQRIHAPPELVWSIVRRFDKPQTYKHFIKSCSVEQNFEMRVGCTRDVIVISGLPANTSTERLDILDDERRVTGFSIIGGEHRLTNYKSVTTVHRFEKENRIWTVVLESYVVDMPEVNSEDDTRMFADTVVKLNLQKLATVAEAMARNSGDGSGSQVT
15 | x | P148T: PYR1 mutant (protein, UniProt O49686 1-191, looked up, variant P148T) Abscisic acid receptor PYR1: MPSELTPEERSELKNSIAEFHTYQLDPGSCSSLHAQRIHAPPELVWSIVRRFDKPQTYKHFIKSCSVEQNFEMRVGCTRDVIVISGLPANTSTERLDILDDERRVTGFSIIGGEHRLTNYKSVTTVHRFEKENRIWTVVLESYVVDMTEGNSEDDTRMFADTVVKLNLQKLATVAEAMARNSGDGSGSQVT
16 | x | N151R: PYR1 mutant (protein, UniProt O49686 1-191, looked up, variant N151R) Abscisic acid receptor PYR1: MPSELTPEERSELKNSIAEFHTYQLDPGSCSSLHAQRIHAPPELVWSIVRRFDKPQTYKHFIKSCSVEQNFEMRVGCTRDVIVISGLPANTSTERLDILDDERRVTGFSIIGGEHRLTNYKSVTTVHRFEKENRIWTVVLESYVVDMPEGRSEDDTRMFADTVVKLNLQKLATVAEAMARNSGDGSGSQVT
17 | x | N151L: PYR1 mutant (protein, UniProt O49686 1-191, looked up, variant N151L) Abscisic acid receptor PYR1: MPSELTPEERSELKNSIAEFHTYQLDPGSCSSLHAQRIHAPPELVWSIVRRFDKPQTYKHFIKSCSVEQNFEMRVGCTRDVIVISGLPANTSTERLDILDDERRVTGFSIIGGEHRLTNYKSVTTVHRFEKENRIWTVVLESYVVDMPEGLSEDDTRMFADTVVKLNLQKLATVAEAMARNSGDGSGSQVT
18 | x | P148G: PYR1 mutant (protein, UniProt O49686 1-191, looked up, variant P148G) Abscisic acid receptor PYR1: MPSELTPEERSELKNSIAEFHTYQLDPGSCSSLHAQRIHAPPELVWSIVRRFDKPQTYKHFIKSCSVEQNFEMRVGCTRDVIVISGLPANTSTERLDILDDERRVTGFSIIGGEHRLTNYKSVTTVHRFEKENRIWTVVLESYVVDMGEGNSEDDTRMFADTVVKLNLQKLATVAEAMARNSGDGSGSQVT
19 | x | P148F: PYR1 mutant (protein, UniProt O49686 1-191, looked up, variant P148F) Abscisic acid receptor PYR1: MPSELTPEERSELKNSIAEFHTYQLDPGSCSSLHAQRIHAPPELVWSIVRRFDKPQTYKHFIKSCSVEQNFEMRVGCTRDVIVISGLPANTSTERLDILDDERRVTGFSIIGGEHRLTNYKSVTTVHRFEKENRIWTVVLESYVVDMFEGNSEDDTRMFADTVVKLNLQKLATVAEAMARNSGDGSGSQVT
20 | x | N151M: PYR1 mutant (protein, UniProt O49686 1-191, looked up, variant N151M) Abscisic acid receptor PYR1: MPSELTPEERSELKNSIAEFHTYQLDPGSCSSLHAQRIHAPPELVWSIVRRFDKPQTYKHFIKSCSVEQNFEMRVGCTRDVIVISGLPANTSTERLDILDDERRVTGFSIIGGEHRLTNYKSVTTVHRFEKENRIWTVVLESYVVDMPEGMSEDDTRMFADTVVKLNLQKLATVAEAMARNSGDGSGSQVT
21 | x | P148E: PYR1 mutant (protein, UniProt O49686 1-191, looked up, variant P148E) Abscisic acid receptor PYR1: MPSELTPEERSELKNSIAEFHTYQLDPGSCSSLHAQRIHAPPELVWSIVRRFDKPQTYKHFIKSCSVEQNFEMRVGCTRDVIVISGLPANTSTERLDILDDERRVTGFSIIGGEHRLTNYKSVTTVHRFEKENRIWTVVLESYVVDMEEGNSEDDTRMFADTVVKLNLQKLATVAEAMARNSGDGSGSQVT
